According to the supplement of paper PMC9732359:
± gives the uncertainty stated by the source.

Test: protein stability index of a GFP-peptide fusion (yeast GPS) (PSI 1-4); higher = more stable; sorted into four equal gates, so the index is relative within each strain
How it was run: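 Sequencing reads from sorted gates were used to score each peptide. The library consisted of tiled 17-residue yeast protein peptides fused downstream of GFP on a Cherry-expressing plasmid, pooled and carried in yeast. Mid-log cultures in leucine-free medium were split into four equal gates by GFP/Cherry ratio, and each gate's plasmids were PCR-amplified and Illumina-sequenced. The protein stability index adds up, over all gates, the read frequency multiplied by the gate number.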

Row | Sequence | protein stability index (doa10∆) | protein stability index (pdr5∆) | protein stability index (san1∆) | protein stability index (ubr1∆)
1 | DAGSNQYYVTQHDKMVD [SWI1] | 3.04 ± 0.058 | 2.99 ± 0.046 | 2.95 ± 0.068 | 2.74 ± 0.045
2 | EDFRIQFKTTIKDTAND [UBP6] | 2.49 ± 0.067 | 2.47 ± 0.07 | 2.16 ± 0.063 | 2.43 ± 0.054
3 | SGFYTFSLLDHHYRPDM [PRE1] |  | 3.1 ± 0.28 | 2.99 ± 0.13 | 
4 | WTRGTGLMSANNIIAEG [FAS2] | 2.98 ± 0.096 | 2.85 ± 0.086 | 3.06 ± 0.093 | 
5 | RRNRYKTYYGIHCLAVR [RPN7] | 1.23 ± 0.05 | 1.38 ± 0.073 | 1.29 ± 0.13 | 1.17 ± 0.044
6 | AENLLQLKTGLAAIVST [YGL172W/NUP49] |  | 3.3 ± 0.19 | 2.99 ± 0.087 | 2.5 ± 0.2
7 | SSKNETSKPVFSFGAAT [YLR335W/NUP2] | 3.12 ± 0.071 | 3.08 ± 0.07 | 2.88 ± 0.063 | 3.06 ± 0.038
8 | AKMNAKTDFAKIINKPN [RPC82] | 1.8 ± 0.069 | 1.79 ± 0.092 | 1.58 ± 0.17 | 1.62 ± 0.069
9 | QEEGSFEFGNMKATSNT [FAS2] | 3.28 ± 0.05 | 3.38 ± 0.07 | 3.14 ± 0.056 | 3.17 ± 0.042
10 | SRLCTPIPVQGEIEIKP [RPN13] | 2.42 ± 0.078 | 2.58 ± 0.067 | 1.7 ± 0.26 | 2.66 ± 0.1
11 | EPKLFRMRIFASNEVIA [RPL20A] | 2.19 ± 0.087 | 1.97 ± 0.054 | 1.82 ± 0.06 | 2.28 ± 0.036
12 | RGFNNQIMQLKKICNHP [SNF2] | 3.13 ± 0.066 | 3.15 ± 0.067 | 3.07 ± 0.049 | 3.2 ± 0.06
13 | EKVRPTPGEVASKAIVQ [MCD1] | 3.16 ± 0.14 | 2.42 ± 0.084 | 1.55 ± 0.29 | 2.84 ± 0.25
14 | DKIAVAVAGLTADAEIL [PRE9] | 1.5 ± 0.098 | 1.65 ± 0.077 | 1.25 ± 0.21 | 2.1 ± 0.075
15 | DQKFGVPVRSFKGHSHI [ASC1] | 3.11 ± 0.092 | 3.19 ± 0.064 | 2.99 ± 0.07 | 3.25 ± 0.058
16 | LGTTEGDIKVLDSNFNL [RPN14] | 3.02 ± 0.12 | 3.11 ± 0.098 | 3.03 ± 0.078 | 3.26 ± 0.081
17 | SEKGLLSATQFTQPALT [FAS1] | 2.44 ± 0.061 | 2.65 ± 0.047 | 2.73 ± 0.039 | 2.57 ± 0.038
18 | IPGEYVTYALSGYVRSR [RPS21A] | 2.18 ± 0.29 |  | 2.61 ± 0.21 | 2.92 ± 0.16
19 | ELKKKRKIKRLEKFLQG [SRP72] | 3.22 ± 0.073 | 3.24 ± 0.091 | 3.19 ± 0.09 | 3.25 ± 0.049
20 | LLNAADRDALSGWGAVV [PUP3] | 3.17 ± 0.12 | 3.2 ± 0.099 | 3.03 ± 0.081 | 3.09 ± 0.099
21 | YEHNGRTLEAITATLVG [CSL4] | 2.03 ± 0.051 | 2.05 ± 0.051 | 1.83 ± 0.066 | 2.04 ± 0.038
22 | FMSNDGPTLEKYISAEL [SNU114] | 2.18 ± 0.069 | 2.83 ± 0.078 | 3.03 ± 0.054 | 3.24 ± 0.082
23 | GFTASVSNQENAGTDIV [MED1] | 2.95 ± 0.14 | 2.91 ± 0.13 | 2.64 ± 0.16 | 3.07 ± 0.072
24 | DVEIGRMPIMLRSNKCI [RET1] | 1.23 ± 0.15 | 1.27 ± 0.11 | 1.14 ± 0.27 | 1.07 ± 0.11
25 | ANIQLDFPELKPYKQVK [FAS2] | 3.16 ± 0.1 | 2.85 ± 0.094 | 2.97 ± 0.11 | 3.17 ± 0.077
26 | NIIEKAMDYAISIENIV [RPN12] | 3.15 ± 0.13 | 3.29 ± 0.088 | 2.96 ± 0.094 | 3.07 ± 0.071

Row | Sequence | protein stability index (doa10∆) | protein stability index (pdr5∆) | protein stability index (san1∆) | protein stability index (ubr1∆)
27 | IVSKSIEMYVQEASKQY [RPN2] | 2.53 ± 0.087 | 2.98 ± 0.1 | 1.54 ± 0.088 | 2.68 ± 0.1
28 | LFEVNPSQTLFSISYKP [SRP21] | 2.57 ± 0.071 | 2.84 ± 0.077 | 2.28 ± 0.091 | 2.64 ± 0.045
29 | ANNASQITPTVPHSHPS [SNF12] | 2.77 ± 0.053 | 3 ± 0.064 | 2.82 ± 0.052 | 2.9 ± 0.052
30 | GMCQLYFWHKIWRKVPG [SNU114] | 1.97 ± 0.064 | 1.8 ± 0.057 | 2.12 ± 0.091 | 2.14 ± 0.048
31 | KYPLGHFVRDLGTIESA [DIS3] | 2.56 ± 0.097 | 2.43 ± 0.1 | 2.85 ± 0.15 | 2.58 ± 0.19
32 | GARVFGALKGASDGGLY [RPL5] |  | 3.34 ± 0.17 |  | 3.11 ± 0.19
33 | QIVKYARKGLTPSQIGV [RPS13] | 3.12 ± 0.068 | 2.97 ± 0.086 | 2.47 ± 0.082 | 2.83 ± 0.086
34 | ITISIHGKPTKGSSLAS [SSN8] | 2.24 ± 0.17 | 2.39 ± 0.086 | 2.43 ± 0.079 | 2.58 ± 0.041
35 | LVQEQVREFQRRLAFLG [BRR2] | 2.07 ± 0.12 | 1.16 ± 0.14 | 1.04 ± 0.22 | 1.17 ± 0.087
36 | FHFAIEQISNNSNQQQN [SIN4] | 2.93 ± 0.061 | 2.53 ± 0.044 | 2.74 ± 0.066 | 2.9 ± 0.049
37 | PGGYFIVNGTEKVILVQ [RET1] | 1.63 ± 0.12 | 1.67 ± 0.1 | 1.28 ± 0.13 | 2.48 ± 0.13
38 | TICIELKTVLHNGRDKI [RGR1] | 1.55 ± 0.051 | 1.62 ± 0.062 | 1.78 ± 0.085 | 1.78 ± 0.067
39 | LSNCLANARDFGEWAGM [BRR2] | 2.35 ± 0.089 | 2.41 ± 0.095 | 2.28 ± 0.17 | 2.45 ± 0.07
40 | GLTQLYKKSTENESTNY [MED7] | 3.08 ± 0.081 | 2.84 ± 0.081 | 2.56 ± 0.1 | 2.96 ± 0.05
41 | GFALNSDIVFIHQNAGR [BRR2] | 3.03 ± 0.12 | 2.09 ± 0.09 | 1.78 ± 0.2 | 2.02 ± 0.057
42 | LQMDYKDDMKVDDAIEL [PRE9] | 3.21 ± 0.14 | 3.42 ± 0.081 | 3.21 ± 0.067 | 3.51 ± 0.071
43 | TNVIAFAFWNLLVKFIK [YLR018C/POM34] | 1.42 ± 0.092 | 1.39 ± 0.084 | 1.29 ± 0.16 | 1.48 ± 0.042
44 | VLSTEEILNIFKHISVK [RPO21] | 2.68 ± 0.13 | 3.44 ± 0.24 | 2.94 ± 0.12 | 1.6 ± 0.17
45 | EQQVAEEATTEEAGEEE [RPS0A] | 2.89 ± 0.14 | 2.82 ± 0.24 | 2.6 ± 0.19 | 
46 | IKFKKCDGDTVWDKFAV [SSN2] | 3 ± 0.052 | 3.03 ± 0.048 | 2.87 ± 0.046 | 2.75 ± 0.046
47 | MKTVQSPMGAQPSYNSA [GAL11] | 3.37 ± 0.26 | 2.91 ± 0.1 | 2.56 ± 0.21 | 2.65 ± 0.081
48 | PPQDAEGWFYKRAASVA [RPS19A] | 2.9 ± 0.27 | 1.42 ± 0.11 | 1.53 ± 0.14 | 1.56 ± 0.11
49 | YDIVKFLTVSKLWAEII [GRR1] | 2.05 ± 0.041 | 2.59 ± 0.038 | 2.18 ± 0.048 | 2.44 ± 0.032
50 | MMTGAEQDPYSNASQMG [RPB3] | 2.68 ± 0.14 | 2.44 ± 0.13 | 2.21 ± 0.2 | 2.92 ± 0.1
51 | LKNFLSYESLKKRKIHN [MCD1] | 1.55 ± 0.038 | 1.46 ± 0.039 | 2.12 ± 0.048 | 1.59 ± 0.034
